Results from patent US7348140B1, “Clinical indications for genotyping polymorphic variants of G-protein coupled receptors” (Acadia Pharmaceuticals, Inc., priority 2001, dated 2008).

Legend:
[1] = target: Cholecystokinin B receptor L224Q variant (Glutamine 224) (UniProt P32239); test: cell-based or functional assay
[2] = target: Cholecystokinin B receptor, wild type (Leucine 224) (UniProt P32239); test: cell-based or functional assay
Sequence of Cholecystokinin B receptor, wild type (Leucine 224) (P32239 whole entry): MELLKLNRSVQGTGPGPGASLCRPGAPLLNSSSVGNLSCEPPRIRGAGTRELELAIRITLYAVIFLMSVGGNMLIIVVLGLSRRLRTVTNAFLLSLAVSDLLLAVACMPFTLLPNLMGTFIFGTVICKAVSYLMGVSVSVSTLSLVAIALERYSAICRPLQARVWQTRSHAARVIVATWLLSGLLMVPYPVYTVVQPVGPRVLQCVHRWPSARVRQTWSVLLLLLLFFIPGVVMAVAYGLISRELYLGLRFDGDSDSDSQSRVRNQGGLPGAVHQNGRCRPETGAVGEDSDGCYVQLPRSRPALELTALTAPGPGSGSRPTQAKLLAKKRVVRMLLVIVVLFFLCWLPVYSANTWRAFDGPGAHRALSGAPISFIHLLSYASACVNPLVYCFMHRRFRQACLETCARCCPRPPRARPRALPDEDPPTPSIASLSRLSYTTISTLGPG

Sequence of Cholecystokinin B receptor L224Q variant (Glutamine 224) (P32239 whole entry L224Q): as the sequence (P32239 whole entry) above, with L224Q counted along it

Gastrin (from UniProt P01350 76-92) (peptide)
Ave -Log EC50, R-SAT functional potency [1]: 9.78 -log EC50 | FOLD (shift in functional potency against wild type; negative = gain of function) [1]: -11.7 fold | Ave -Log EC50, R-SAT functional potency [2]: 8.71 -log EC50
